Assay [1] has as its system rat "angiopoietin-related protein 3" gene. The assay can be described thus: TaqMan PCR quantification of liver angiopoietin-related protein 3 gene expression after bezafibrate in feed. As to conditions: 0.3% in F2 powder feed for seven days, compared to the control group, corrected with 18S ribosome. It counts as in vivo, Zucker fatty rats. The source says:
(§1) For seven days, the antilipemic bezafibrate (manufactured by Sigma) mixed with F2 powder feed (manufactured by Funabashi Noujou) at 0.3% of concentration was administrated to two Zucker fatty rats (purchased from Nihon Charles River) of age 11 weeks.
To the two rats in the control group only F2 powder feed was given. After collecting blood samples from each of the rats under both conditions, the liver thereof was extracted, put in liquid nitrogen immediately to be frozen rapidly, and kept at -80 °C. 5 ml of TRIzol reagent (manufactured by Gibco BRL) were added to 0.1 g of the liver tissue obtained, and it was homogenized on ice using an ultra high-speed homogenizer (Polytoron, manufactured by ckinematica) (at dial 10 for 2 minutes). After incubation for 5 minutes at a room temperature, 1 ml of chloroform was added and mixed vigorously for 15 seconds. […]
A single stranded cDNA was produced according to the following procedures. […] After completion of the reaction, 29 µl of ribonuclease-free purified water was added to each of the samples, and diluted with ribonuclease-free purified water a further 5 times for use in the following quantification. The single-stranded cDNA solution for creation of a calibration-curve was prepared by producing a 5-times serial dilution with ribonuclease-free purified water from the solution for quantification derived from one control sample. […]
(Real-time PCR tracks product formation cycle by cycle.)

Assay [2] can be described thus: Concentration of neutral fat in blood after bezafibrate in feed. It counts as in vivo, Zucker fatty rats. As to conditions: 0.3% in F2 powder feed for seven days; compared to the control group.
From the text: as §1
To the two rats in the control group only F2 powder feed was given. After collecting blood samples from each of the rats under both conditions, the liver thereof was extracted, put in liquid nitrogen immediately to be frozen rapidly, and kept at -80 °C. 5 ml of TRIzol reagent (manufactured by Gibco BRL) were added to 0.1 g of the liver tissue obtained, and it was homogenized on ice using an ultra high-speed homogenizer (Polytoron, manufactured by ckinematica) (at dial 10 for 2 minutes). After incubation for 5 minutes at a room temperature, 1 ml of chloroform was added and mixed vigorously for 15 seconds.

For assay [3], the target named is lipoprotein lipase (LPL) originated from a rat fat cell (rat) (UniProt Q06000). The assay can be described thus: cell-based or functional assay.
Assay [4] concerns the target lipoprotein lipase (LPL) in mouse plasma after administering heparin intravenously (mouse) (UniProt P11152). The assay can be described thus: cell-based or functional assay.
For assay [5], the target named is hepatic triacylglycerol lipase (HTGL) in mouse plasma after administering heparin intravenously (mouse) (UniProt P27656). The assay can be described thus: cell-based or functional assay.

From patent EP1403367A1, “METHOD OF TESTING DRUG FOR TREATING OR PREVENTING DISEASES SUCH AS HYPERLIPEMIA” (Sankyo Company Limited, priority 2001, dated 2002) come the findings set out here.

Sequence of UniProt Q06000 (Q06000 28-474 limits assumed): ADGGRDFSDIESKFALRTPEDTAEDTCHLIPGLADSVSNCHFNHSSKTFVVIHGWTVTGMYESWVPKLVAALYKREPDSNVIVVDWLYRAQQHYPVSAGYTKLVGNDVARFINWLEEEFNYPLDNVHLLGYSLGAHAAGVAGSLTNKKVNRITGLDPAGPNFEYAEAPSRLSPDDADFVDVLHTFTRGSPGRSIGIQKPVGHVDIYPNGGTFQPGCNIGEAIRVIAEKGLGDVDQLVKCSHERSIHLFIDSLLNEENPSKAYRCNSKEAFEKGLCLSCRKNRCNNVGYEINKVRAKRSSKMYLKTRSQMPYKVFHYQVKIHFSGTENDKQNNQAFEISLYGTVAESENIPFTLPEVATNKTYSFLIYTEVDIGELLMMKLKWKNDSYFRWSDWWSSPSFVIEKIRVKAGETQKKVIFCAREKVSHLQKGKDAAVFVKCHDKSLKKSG
Sequence of UniProt P27656 (P27656 22-510 limits assumed): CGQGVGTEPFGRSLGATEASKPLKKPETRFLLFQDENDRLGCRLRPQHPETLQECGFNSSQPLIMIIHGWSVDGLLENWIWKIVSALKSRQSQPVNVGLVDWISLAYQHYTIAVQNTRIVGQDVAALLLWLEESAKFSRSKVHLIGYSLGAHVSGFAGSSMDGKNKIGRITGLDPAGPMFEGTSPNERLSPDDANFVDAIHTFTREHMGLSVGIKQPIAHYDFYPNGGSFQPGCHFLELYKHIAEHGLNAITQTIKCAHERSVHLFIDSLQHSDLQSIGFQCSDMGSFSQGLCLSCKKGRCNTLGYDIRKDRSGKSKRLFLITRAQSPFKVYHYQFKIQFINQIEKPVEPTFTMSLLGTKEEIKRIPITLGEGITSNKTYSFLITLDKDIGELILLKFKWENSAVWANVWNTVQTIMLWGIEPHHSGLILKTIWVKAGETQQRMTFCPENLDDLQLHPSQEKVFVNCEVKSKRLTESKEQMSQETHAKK
Sequence of UniProt P11152 (P11152 28-474 limits assumed): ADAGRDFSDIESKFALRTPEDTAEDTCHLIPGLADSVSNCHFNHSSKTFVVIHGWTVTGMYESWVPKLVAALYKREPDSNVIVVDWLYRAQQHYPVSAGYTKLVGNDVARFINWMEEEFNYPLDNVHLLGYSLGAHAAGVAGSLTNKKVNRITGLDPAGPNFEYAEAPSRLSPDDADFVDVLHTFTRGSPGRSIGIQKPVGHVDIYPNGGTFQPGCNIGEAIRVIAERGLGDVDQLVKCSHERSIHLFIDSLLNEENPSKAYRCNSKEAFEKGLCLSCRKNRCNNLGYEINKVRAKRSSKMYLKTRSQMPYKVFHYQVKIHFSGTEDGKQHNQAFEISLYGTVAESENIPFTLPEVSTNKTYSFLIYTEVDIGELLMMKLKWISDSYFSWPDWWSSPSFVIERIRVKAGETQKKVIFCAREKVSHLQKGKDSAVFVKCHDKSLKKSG

Consider `CC(C)(Oc1ccc(CCNC(=O)c2ccc(Cl)cc2)cc1)C(=O)O` [bezafibrate], for which, in assay [1], the “level of expression of a rat "angiopoietin-related protein 3" gene decreased” value was 73%. In assay [2], the “concentration of neutral fat in blood reduced” value worked out at 50%.

In assay [3], “GST-ARP4Full (glutathione-S-transferase connected to the amino terminus of amino acid numbers 26-406 of SEQ ID No. 16, angiopoietin related protein 4) (from UniProt P08515 1-218)” showed a relative value of LPL activity (%) at 1 µg/ml GST-ARP4Full (GST 10 µg/ml = 100 %) of 67%, a relative value of LPL activity (%) at 2.5 µg/ml GST-ARP4Full (GST 10 µg/ml = 100 %) of 30%, a relative value of LPL activity (%) at 5 µg/ml GST-ARP4Full (GST 10 µg/ml = 100 %) of 16% and a relative value of LPL activity (%) at 10 µg/ml GST-ARP4Full (GST 10 µg/ml = 100 %) of 5%.

Take “GST-ARP4N (glutathione-S-transferase connected to the amino terminus of amino acid numbers 26-143 of SEQ ID No. 16, angiopoietin related protein 4) (from UniProt P08515 1-218)”: in assay [3], the LPL activity (%) at 1 µg/ml GST-ARP4N (GST 10 µg/ml = 100 %) is 74%, the LPL activity (%) at 2.5 µg/ml GST-ARP4N (GST 10 µg/ml = 100 %) was found to be 61%, the LPL activity (%) at 5 µg/ml GST-ARP4N (GST 10 µg/ml = 100 %) turned out to be 34% and the LPL activity (%) at 10 µg/ml GST-ARP4N (GST 10 µg/ml = 100 %) was determined as 16%.

Regarding “KhAP5 CC/His (N terminal 207 amino acid partial protein of angiopoietin-related protein 3 with a histidine tag inserted after residue 20) (ligand)”, in assay [3], the relative value of LPL activity (%) at 0 µg/ml KhAP5 CC/His is 100%, the relative value of LPL activity (%) at 1 µg/ml KhAP5 CC/His was determined as 27%, the relative value of LPL activity (%) at 2.5 µg/ml KhAP5 CC/His turned out to be 21% and the relative value of LPL activity (%) at 5 µg/ml KhAP5 CC/His was 14%. Also, the relative value of LPL activity (%) at 10 µg/ml KhAP5 CC/His in assay [3] stood at 11%.

Take “human angiopoietin-related protein 3 (polypeptide consisting of amino acid numbers 17-460 of SEQ ID No. 4) (ligand)”: in assay [3], the relative value of LPL activity (%) at 0 µg/ml polypeptide is 100%, the relative value of LPL activity (%) at 1 µg/ml polypeptide came to 84%, the relative value of LPL activity (%) at 2.5 µg/ml polypeptide stood at 64% and the relative value of LPL activity (%) at 5 µg/ml polypeptide is 52%. This compound also registered a relative value of LPL activity (%) at 10 µg/ml polypeptide in assay [3] of 29%. Further, in assay [4], the relative value of LPL activity (%) at 0 µg/ml polypeptide amounted to 100%, the relative value of LPL activity (%) at 1 µg/ml polypeptide came to 93%, the relative value of LPL activity (%) at 2.5 µg/ml polypeptide came to 82% and the relative value of LPL activity (%) at 5 µg/ml polypeptide came out at 70%. The compound further gave a relative value of LPL activity (%) at 10 µg/ml polypeptide in assay [4] of 49%. Further, in assay [5], the relative value of HTGL activity (%) at 0 µg/ml polypeptide amounted to 100%, the relative value of HTGL activity (%) at 1 µg/ml polypeptide turned out to be 109%, the relative value of HTGL activity (%) at 2.5 µg/ml polypeptide was 94% and the relative value of HTGL activity (%) at 5 µg/ml polypeptide turned out to be 80%. In assay [5], the relative value of HTGL activity (%) at 10 µg/ml polypeptide came out at 64%.
